B1: Azoarcus group I ribozyme (parent)
chain: GUGCCUUGCGCCGGGAAACCACGCAAGGGAUGGUGUCAAAUUCGGCGAAACCUAAGCGCCCGCCCGGGCGUAUGGCAACGCCGAGCCAAGCUUCGGCGCCUGCGCCGAUGAAGGUGUAGAGACUAGACGGCACCCACCUAAGGCAAACGCUAUGGUGAAGGCAUAGUCCAGGGAGUGGCGAAAGUCACACAAACCGG

Variants of: B1
Assay: reverse-splicing fitness (ratio to wild type); higher = more active; in vitro selection; Mg2+ level not given
Method in brief: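 An in vitro group I ribozyme library with randomized positions was T7-transcribed and gel-purified. In triplicate, 10 pmol RNA in EPPS pH 7.5 was reacted with 50 pmoles of a 30-nt RNA substrate for 1 h at 37 °C across several added MgCl2 levels (1–48 mM), then stopped with EDTA. Products were reverse transcribed from a substrate-complementary primer, PCR-amplified and sequenced (HiSeq 4000). Fitness is a variant's read proportion after selection over that before, normalised to wild type.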

Row | Variant | reverse-splicing fitness
1 | C82G A111G A145G C150A C169U | 0.0105
2 | C82G A111G A145G C150A C169G | 0.00938
3 | C82G A111G A145G C150A C169A | 0.011
4 | C82G A111G A145G U176C | 0.27
5 | C82G A111G A145G U176G | 0.0821
6 | C82G A111G A145G U176A | 0.25
7 | C82G A111G A145C C150U C169U U176C | 0.0103
8 | C82G A111G A145C C150U C169U U176G | 0.0062
9 | C82G A111G A145C C150U C169U U176A | 0.0142
10 | C82G A111G A145C U176A | 0.267
11 | C82G A111G A145C U176C | 0.258
12 | C82G A111G A145C U176G | 0.116
13 | C82G A111G A145C C150U C169G U176A | 0.0203
14 | C82G A111G A145C C150U C169G U176G | 0.00619
15 | C82G A111G A145C C150U C169G U176C | 0.0114
16 | C82G A111G A145G C150A U176G | 0.0208
17 | C82G A111G A145G C150A U176A | 0.0383
18 | C82G A111G A145G C150A U176C | 0.051
19 | C82G A111G A145G C169U U176C | 0.0155
20 | C82G A111G A145G C169U U176A | 0.0132
21 | C82G A111G A145G C169U U176G | 0.0049

Row | Variant | reverse-splicing fitness
22 | C82G A111G A145C C169A U176C | 0.00787
23 | C82G A111G A145C C169A U176G | 0.00537
24 | C82G A111G A145C C169A U176A | 0.0111
25 | C82G A111G A145C C169U | 0.0132
26 | C82G A111G A145C C169A | 0.00733
27 | C82G A111G A145C C169G | 0.00994
28 | C82G A111G A145G C150A C169A U176A | 0.0234
29 | C82G A111G A145G C150A C169A U176C | 0.0222
30 | C82G A111G A145G C150A C169A U176G | 0.00692
31 | C82G A111G A145G C150G | 0.0374
32 | C82G A111G A145G C150U | 0.316
33 | C82G A111G A145G C150A | 0.0499
34 | C82G A111G A145G C150G C169U | 0.0102
35 | C82G A111G A145G C150G C169G | 0.00774
36 | C82G A111G A145G C150G C169A | 0.00978
37 | C82G A111G A145G C150G C169A U176A | 0.015
38 | C82G A111G A145G C150G C169A U176G | 0.0094
39 | C82G A111G A145G C150G C169A U176C | 0.0146
40 | C82G A111G A145G C150U C169A U176C | 0.0189
41 | C82G A111G A145G C150U C169A U176G | 0.00698
42 | C82G A111G A145G C150U C169A U176A | 0.0171

Row | Variant | reverse-splicing fitness
43 | C82G A111G A145G C150U C169G U176A | 0.017
44 | C82G A111G A145G C150U C169G U176C | 0.0216
45 | C82G A111G A145G C150U C169G U176G | 0.00635
46 | C82G A111G A145G C150A C169U U176C | 0.0162
47 | C82G A111G A145G C150A C169U U176G | 0.00674
48 | C82G A111G A145G C150A C169U U176A | 0.0155
49 | C82G A111G A120U U176C | 0.0294
50 | C82G A111G A120U U176A | 0.018
51 | C82G A111G A120U U176G | 0.00562
52 | C82G A111G A145C C150A U176G | 0.00955
53 | C82G A111G A145C C150A U176C | 0.0173
54 | C82G A111G A145C C150A U176A | 0.0205
55 | C82G A111G A145U C150A C169U | 0.00982
56 | C82G A111G A145U C150A C169G | 0.00845
57 | C82G A111G A145U C150A C169A | 0.00827
58 | C82G A111G A145C C150G C169U U176C | 0.013
59 | C82G A111G A145C C150G C169U U176G | 0.00582
60 | C82G A111G A145C C150G C169U U176A | 0.00922
61 | C82G A111G A145G C150G U176C | 0.026
62 | C82G A111G A145G C150G U176A | 0.0145
63 | C82G A111G A145G C150G U176G | 0.00812

Row | Variant | reverse-splicing fitness
64 | C82G A111G A145C C150A C169G U176G | 0.00577
65 | C82G A111G A145C C150A C169G U176A | 0.0228
66 | C82G A111G A145C C150A C169G U176C | 0.0122
67 | C82G A111G A145G C150U C169U | 0.0137
68 | C82G A111G A145G C150U C169A | 0.0104
69 | C82G A111G A145G C150U C169G | 0.0106
70 | C82G A111G A145C C150G U176C | 0.0294
71 | C82G A111G A145C C150G U176A | 0.0197
72 | C82G A111G A145C C150G U176G | 0.00683
73 | C82G A111G A145C C150G C169A U176C | 0.0105
74 | C82G A111G A145C C150G C169A U176A | 0.00983
75 | C82G A111G A145C C150G C169A U176G | 0.00615
76 | C82G A111G A145C C150U U176A | 0.0557
77 | C82G A111G A145C C150U U176G | 0.0267
78 | C82G A111G A145C C150U U176C | 0.0592
79 | C82G A111G A120U C169A | 0.00418
80 | C82G A111G A120U C169U | 0.00572
81 | C82G A111G A120U C169G | 0.00481
82 | C82G A111G A120U C169G U176A | 0.00289
83 | C82G A111G A120U C169G U176G | 0.00169

From the RNAGym collection of RNA variant scans (doi:10.1093/molbev/msab373)
